Among the data in publication PMC8073056 are stoichiometry N values, retold here.

Usually stoichiometry N stands for the number of molecules, sites or subunits per partner or assembly.

The target in the experiment is purified full-length Arpin (N-terminal 6xHis-tagged) (human) (UniProt Q7Z6K5). In words: SEC-MALS; purified Arpin and purified ARC4 of TNKS2 mixed; 15-mL KW-803 column (Shodex), dn/dc 0.183 mL/g. On the technique in general: SEC sorts molecules by how far they enter the pores of the column.

Substance ARC4 of TNKS2 (purified) showed a stoichiometry N of 1.
